Measured values from US20020127657A1 (Dana-Farber, published 2002).

T1: CD2BP2225-341 (yeast two-hybrid clone) (human, UniProt O95400 225-341)
T1 construct: Yeast two-hybrid prey in pJG4-5; vector fusion part not described
T1 sequence: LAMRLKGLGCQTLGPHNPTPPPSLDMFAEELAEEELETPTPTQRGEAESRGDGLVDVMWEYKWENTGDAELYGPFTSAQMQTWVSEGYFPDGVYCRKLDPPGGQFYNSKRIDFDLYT

T2: CD2BP2129-287 (human, UniProt O95400 129-287)
T2 construct: Yeast two-hybrid prey; vector fusion part not described
T2 sequence: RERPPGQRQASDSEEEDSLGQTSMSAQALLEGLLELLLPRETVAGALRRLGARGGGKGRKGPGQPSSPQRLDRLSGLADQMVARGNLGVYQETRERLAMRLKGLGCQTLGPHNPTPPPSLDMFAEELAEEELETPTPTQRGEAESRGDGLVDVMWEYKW

T3: CD2BP2129-254 (human, UniProt O95400 129-254)
T3 construct: Yeast two-hybrid prey; vector fusion part not described
T3 sequence: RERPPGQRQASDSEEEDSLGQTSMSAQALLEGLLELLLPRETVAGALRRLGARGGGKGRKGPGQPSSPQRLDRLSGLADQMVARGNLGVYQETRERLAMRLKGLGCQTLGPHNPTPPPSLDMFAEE

T4: CD2 binding protein 2 (CD2BP2) (human, UniProt O95400 1-341, limits assumed)
T4 construct: CD2BP2 as used in the yeast two-hybrid tests against CD2 derivatives (vector pJG4-5)
T4 sequence: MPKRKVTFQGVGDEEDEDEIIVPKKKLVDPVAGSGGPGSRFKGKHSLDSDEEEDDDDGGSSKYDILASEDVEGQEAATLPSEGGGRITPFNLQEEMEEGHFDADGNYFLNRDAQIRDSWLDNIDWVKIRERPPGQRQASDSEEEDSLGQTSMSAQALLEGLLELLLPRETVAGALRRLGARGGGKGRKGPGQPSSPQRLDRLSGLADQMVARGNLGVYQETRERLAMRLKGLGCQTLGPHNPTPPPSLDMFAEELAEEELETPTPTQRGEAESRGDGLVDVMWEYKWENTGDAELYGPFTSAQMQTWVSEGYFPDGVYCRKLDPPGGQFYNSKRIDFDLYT

B1: CD2 cytoplasmic region (CD2221-327) (receptor, human, UniProt P06729 245-351, looked up)
chain: NDEELETRAHRVATEERGRKPHQIPASTPQNPATSQHPPPPPGHRSQAPSHRPPPPGHRVQHQPQKRPPAPSGTQVHQQKGPPLPRPRVQPKPPHGAAENSLSPSSN
notes: range 221-327; Yeast two-hybrid bait expressed from vector pEG202; also called CD2 cytoplasmic tail; human CD2 cytoplasmic segment amino acids 221-327

Columns and labels:
[1] = molecular target: T1, CD2BP2225-341 (yeast two-hybrid clone); test: yeast two-hybrid
From the text: (§1) The yeast hybrid system interaction trap was used as described (Finley and Brent, Interaction Trap Cloning with Yeast (Oxford Univ. Press), NY (1995)). In brief, as bait, a human CD2 cDNA encoding the cytoplasmic segment amino acids 221-327 was transferred into the pEG202 vector. cDNAs from an activated human T cell cDNA library, CD2 binding protein 2 (CD2BP2), or mutant cDNA variants of CD2BP2 were introduced into the pJG4-5 vector between EcoRI and Xho1 restriction sites. Mutations were created by a previously described method (Higuchi et al., Nucleic Acids Res. 16:7351-7367 (1988)), and were confirmed by DNA sequencing. Both of the yeast shuttle vectors were introduced into the yeast strain EGY48, were plated onto selection plates containing glucose, and were incubated at 30° C. After 48 hours greater than 100 colonies were mixed, were transferred onto a plate containing galactose/raffinose and 5-bromo-4-chloro-3-indolyl-D-galactoside, and were incubated for 48 hours at 30° C. followed by 5 days at 8° C. The strength of the interaction was scored based on the time point when the blue color appeared in comparison with a negative control: ++++, <6 hours; +++, 12 hours: ++, <24 hours; +, <48 hours; ±, <72 hours; and −, >72 hours. CD2 mutations were generated and analyzed in a similar manner.

CD2BP2129-287 = molecular target: T2, CD2BP2129-287; test: yeast two-hybrid
From the text: as §1

CD2BP2129-254 = molecular target: T3, CD2BP2129-254; test: yeast two-hybrid
From the text: as §1

[2] = molecular target: B1; test: yeast two-hybrid
From the text: as §1

human CD4 = molecular target: T5, human CD4 (human, UniProt P01730 26-458); test: co-immunoprecipitation from cotransfected COS7 cells, anti-FLAG Western blot
T5 construct: whole, on cells; Control in the COS7 co-immunoprecipitation; tested in cell lysate
Method: COS7 cells were transfected with FLAG-CD2BP2 cDNA (lane 1), with FLAG-CD2BP2 and a human CD2 cDNA (lanes 2 and 3), or with FLAG-CD2BP2 and a human CD4 cDNA (lanes 4 and 5), then were lysed and immunoprecipitated with the anti-FLAG mAb M2 (lanes 3 and 5), with anti-CD2 mAb (anti-T11₁)(lanes 1 and 2), or with anti-CD4 mAb (19Thy5D7) (lane 4). Subsequently, the amount of FLAG-CD2BP2 in the immunoprecipitates was assayed by anti-FLAG mAb M2 Western blotting.
To determine whether CD2BP2 associates specifically with CD2, COS7 cells were cotransfected with FLAG-CD2BP2 and CD2 cDNA, or, as a control, CD4 cDNA. Subsequently, the CD2 protein was immunoprecipitated with anti-CD2 mAb and association with CD2BP2 examined by Western blotting with anti-FLAG mAb. […] The amount of CD2BP2 associated with CD2, however, is only a fraction of the CD2BP2 protein expressed in the COS7 cells.
As the vectors for transfection, pcDNA1.1 and pcDNA3.1 (Invitrogen) were used with COS7 and with Jurkat cells, respectively. For expression of CD2 and CD4 in COS7 cells, a pCDM8 plasmid containing each was used (Sakiharna et al, Proc. Natl. Acad. Sci. USA 92:6444-6448 (1995); Li et al., J. Mol. Biol. 263:209-226 (1996)). […]

[3] = molecular target: T4, CD2 binding protein 2 (CD2BP2); test: yeast two-hybrid
From the text: as §1

Binder	binding result [2]	also measured
B1		binding result [1]: binds; binding result (CD2BP2129-287): no binding; binding result (CD2BP2129-254): no binding
CD2BP2256-341 (yeast two-hybrid clone) (other, Yeast two-hybrid prey in pJG4-5; vector fusion part not described; also called shortest functional clone) AEEELETPTPTQRGEAESRGDGLVDVMWEYKWENTGDAELYGPFTSAQMQTWVSEGYFPDGVYCRKLDPPGGQFYNSKRIDFDLYT	binds	
CD2BP2 F313A (other, Yeast two-hybrid prey) AEEELETPTPTQRGEAESRGDGLVDVMWEYKWENTGDAELYGPFTSAQMQTWVSEGYAPDGVYCRKLDPPGGQFYNSKRIDFDLYT	no binding	
CD2BP2 G311A (other, Yeast two-hybrid prey) AEEELETPTPTQRGEAESRGDGLVDVMWEYKWENTGDAELYGPFTSAQMQTWVSEAYFPDGVYCRKLDPPGGQFYNSKRIDFDLYT	no binding	
CD2BP2 W307A (other, Yeast two-hybrid prey) AEEELETPTPTQRGEAESRGDGLVDVMWEYKWENTGDAELYGPFTSAQMQTAVSEGYFPDGVYCRKLDPPGGQFYNSKRIDFDLYT	no binding	
CD2BP2 Y312A (other, Yeast two-hybrid prey) AEEELETPTPTQRGEAESRGDGLVDVMWEYKWENTGDAELYGPFTSAQMQTWVSEGAFPDGVYCRKLDPPGGQFYNSKRIDFDLYT	no binding	
FLAG-CD2BP2 (other, Expressed in COS7 (pcDNA1.1) and Jurkat J77 (pcDNA3.1) cells and tested from cell lysates; also called full length FLAG-CD2BP2 construct) DYKDDDDKMPKRKVTFQGVGDEEDEDEIIVPKKKLVDPVAGSGGPGSRFKGKHSLDSDEEEDDDDGGSSKYDILASEDVEGQEAATLPSEGGGRITPFNLQEEMEEGHFDADGNYFLNRDAQIRDSWLDNIDWVKIRERPPGQRQASDSEEEDSLGQTSMSAQALLEGLLELLLPRETVAGALRRLGARGGGKGRKGPGQPSSPQRLDRLSGLADQMVARGNLGVYQETRERLAMRLKGLGCQTLGPHNPTPPPSLDMFAEELAEEELETPTPTQRGEAESRGDGLVDVMWEYKWENTGDAELYGPFTSAQMQTWVSEGYFPDGVYCRKLDPPGGQFYNSKRIDFDLYT		binding result (human CD4): no binding
CD2BP2256-341Δ297-313 (other, Yeast two-hybrid prey; vector fusion part not described; also called deletion clone lacking those 17 residues) AEEELETPTPTQRGEAESRGDGLVDVMWEYKWENTGDAELYPDGVYCRKLDPPGGQFYNSKRIDFDLYT	no binding	
CD2BP2256-332 (other, Yeast two-hybrid prey; vector fusion part not described; also called nine-residue truncation) AEEELETPTPTQRGEAESRGDGLVDVMWEYKWENTGDAELYGPFTSAQMQTWVSEGYFPDGVYCRKLDPPGGQFYNS	no binding	
CD2221-271 (receptor, human, UniProt P06729 245-295, looked up, range 221-271; CD2 cytoplasmic tail truncation mutant for yeast two-hybrid analysis; vector fusion part not described) NDEELETRAHRVATEERGRKPHQIPASTPQNPATSQHPPPPPGHRSQAPSH		binding result [3]: no binding
